Patent US20050058640A1 (BAXTER INTERNATIONAL, published 2005)

What was measured:
[1] = target: factor VIII / factor VIIIa (recombinant human coagulation factor VIII, thrombin-activated) (UniProt P00451)
human factor IXa [2] = target: T1, human factor IXa (human, UniProt P00740 47-191; P00740 227-461); assay: cell-based or functional assay
human factor IXa [3] = target: T1, human factor IXa; assay: cell-based or functional assay; remark: listed apart in the source
human factor IXa [4] = target: T1, human factor IXa; assay: SPR (BIACORE), antibody captured by anti-mouse Fc on CM5 chip, FIXa in flow, steady state analysis
Text: Polyclonal anti-mouse Fc antibodies were immobilized on a CM5 sensor chip and saturated with the respective monoclonal antibody. As a reference, a non-specific mouse IgG was used.

bovine FIX = target: T2, bovine FIX (bovine, UniProt P00741 47-462); assay: ELISA and Western blot
T2 construct: also called bovine factor IX
T2 sequence (P00741 47-462 limits assumed): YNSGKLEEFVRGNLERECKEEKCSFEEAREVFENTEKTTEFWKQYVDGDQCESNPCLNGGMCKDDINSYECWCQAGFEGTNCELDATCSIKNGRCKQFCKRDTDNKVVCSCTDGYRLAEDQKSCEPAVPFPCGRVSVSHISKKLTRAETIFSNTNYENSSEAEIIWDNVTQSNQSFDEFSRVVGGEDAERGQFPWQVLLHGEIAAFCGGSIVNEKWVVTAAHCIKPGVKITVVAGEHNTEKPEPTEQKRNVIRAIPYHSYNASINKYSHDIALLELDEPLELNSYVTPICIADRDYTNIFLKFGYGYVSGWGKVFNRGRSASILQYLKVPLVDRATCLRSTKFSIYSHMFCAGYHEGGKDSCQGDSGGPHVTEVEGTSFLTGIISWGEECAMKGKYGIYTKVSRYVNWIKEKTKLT

murine FIX = target: T3, murine FIX (murine, UniProt P16294 47-471); assay: ELISA and Western blot
T3 construct: also called murine factor IX
T3 sequence (P16294 47-471 limits assumed): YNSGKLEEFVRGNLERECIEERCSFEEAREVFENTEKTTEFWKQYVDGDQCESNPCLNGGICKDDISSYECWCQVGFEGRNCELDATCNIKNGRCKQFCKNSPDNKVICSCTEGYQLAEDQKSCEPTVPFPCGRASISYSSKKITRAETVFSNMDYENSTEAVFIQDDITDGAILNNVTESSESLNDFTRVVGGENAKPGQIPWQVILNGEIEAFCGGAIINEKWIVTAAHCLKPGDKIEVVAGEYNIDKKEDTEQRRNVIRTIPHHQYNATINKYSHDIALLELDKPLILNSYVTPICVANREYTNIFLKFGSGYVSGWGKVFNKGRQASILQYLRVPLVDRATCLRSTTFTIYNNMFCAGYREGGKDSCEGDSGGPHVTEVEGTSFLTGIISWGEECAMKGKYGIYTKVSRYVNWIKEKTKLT

T1 sequence (P00740 47-191 limits assumed, chain 1 of 2): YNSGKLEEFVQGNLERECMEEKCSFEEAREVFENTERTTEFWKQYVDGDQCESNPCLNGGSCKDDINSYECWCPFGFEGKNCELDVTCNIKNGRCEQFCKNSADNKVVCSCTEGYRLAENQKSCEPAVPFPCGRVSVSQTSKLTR
T1 sequence (P00740 227-461 limits assumed, chain 2 of 2): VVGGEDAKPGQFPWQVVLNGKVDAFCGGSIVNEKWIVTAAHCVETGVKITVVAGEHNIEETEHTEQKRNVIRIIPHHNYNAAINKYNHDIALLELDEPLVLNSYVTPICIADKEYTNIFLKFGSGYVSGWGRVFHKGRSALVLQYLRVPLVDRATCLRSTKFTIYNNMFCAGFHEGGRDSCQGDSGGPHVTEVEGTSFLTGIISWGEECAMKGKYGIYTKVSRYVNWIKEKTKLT
Sequence of factor VIII / factor VIIIa (recombinant human coagulation factor VIII, thrombin-activated) (P00451 20-2351): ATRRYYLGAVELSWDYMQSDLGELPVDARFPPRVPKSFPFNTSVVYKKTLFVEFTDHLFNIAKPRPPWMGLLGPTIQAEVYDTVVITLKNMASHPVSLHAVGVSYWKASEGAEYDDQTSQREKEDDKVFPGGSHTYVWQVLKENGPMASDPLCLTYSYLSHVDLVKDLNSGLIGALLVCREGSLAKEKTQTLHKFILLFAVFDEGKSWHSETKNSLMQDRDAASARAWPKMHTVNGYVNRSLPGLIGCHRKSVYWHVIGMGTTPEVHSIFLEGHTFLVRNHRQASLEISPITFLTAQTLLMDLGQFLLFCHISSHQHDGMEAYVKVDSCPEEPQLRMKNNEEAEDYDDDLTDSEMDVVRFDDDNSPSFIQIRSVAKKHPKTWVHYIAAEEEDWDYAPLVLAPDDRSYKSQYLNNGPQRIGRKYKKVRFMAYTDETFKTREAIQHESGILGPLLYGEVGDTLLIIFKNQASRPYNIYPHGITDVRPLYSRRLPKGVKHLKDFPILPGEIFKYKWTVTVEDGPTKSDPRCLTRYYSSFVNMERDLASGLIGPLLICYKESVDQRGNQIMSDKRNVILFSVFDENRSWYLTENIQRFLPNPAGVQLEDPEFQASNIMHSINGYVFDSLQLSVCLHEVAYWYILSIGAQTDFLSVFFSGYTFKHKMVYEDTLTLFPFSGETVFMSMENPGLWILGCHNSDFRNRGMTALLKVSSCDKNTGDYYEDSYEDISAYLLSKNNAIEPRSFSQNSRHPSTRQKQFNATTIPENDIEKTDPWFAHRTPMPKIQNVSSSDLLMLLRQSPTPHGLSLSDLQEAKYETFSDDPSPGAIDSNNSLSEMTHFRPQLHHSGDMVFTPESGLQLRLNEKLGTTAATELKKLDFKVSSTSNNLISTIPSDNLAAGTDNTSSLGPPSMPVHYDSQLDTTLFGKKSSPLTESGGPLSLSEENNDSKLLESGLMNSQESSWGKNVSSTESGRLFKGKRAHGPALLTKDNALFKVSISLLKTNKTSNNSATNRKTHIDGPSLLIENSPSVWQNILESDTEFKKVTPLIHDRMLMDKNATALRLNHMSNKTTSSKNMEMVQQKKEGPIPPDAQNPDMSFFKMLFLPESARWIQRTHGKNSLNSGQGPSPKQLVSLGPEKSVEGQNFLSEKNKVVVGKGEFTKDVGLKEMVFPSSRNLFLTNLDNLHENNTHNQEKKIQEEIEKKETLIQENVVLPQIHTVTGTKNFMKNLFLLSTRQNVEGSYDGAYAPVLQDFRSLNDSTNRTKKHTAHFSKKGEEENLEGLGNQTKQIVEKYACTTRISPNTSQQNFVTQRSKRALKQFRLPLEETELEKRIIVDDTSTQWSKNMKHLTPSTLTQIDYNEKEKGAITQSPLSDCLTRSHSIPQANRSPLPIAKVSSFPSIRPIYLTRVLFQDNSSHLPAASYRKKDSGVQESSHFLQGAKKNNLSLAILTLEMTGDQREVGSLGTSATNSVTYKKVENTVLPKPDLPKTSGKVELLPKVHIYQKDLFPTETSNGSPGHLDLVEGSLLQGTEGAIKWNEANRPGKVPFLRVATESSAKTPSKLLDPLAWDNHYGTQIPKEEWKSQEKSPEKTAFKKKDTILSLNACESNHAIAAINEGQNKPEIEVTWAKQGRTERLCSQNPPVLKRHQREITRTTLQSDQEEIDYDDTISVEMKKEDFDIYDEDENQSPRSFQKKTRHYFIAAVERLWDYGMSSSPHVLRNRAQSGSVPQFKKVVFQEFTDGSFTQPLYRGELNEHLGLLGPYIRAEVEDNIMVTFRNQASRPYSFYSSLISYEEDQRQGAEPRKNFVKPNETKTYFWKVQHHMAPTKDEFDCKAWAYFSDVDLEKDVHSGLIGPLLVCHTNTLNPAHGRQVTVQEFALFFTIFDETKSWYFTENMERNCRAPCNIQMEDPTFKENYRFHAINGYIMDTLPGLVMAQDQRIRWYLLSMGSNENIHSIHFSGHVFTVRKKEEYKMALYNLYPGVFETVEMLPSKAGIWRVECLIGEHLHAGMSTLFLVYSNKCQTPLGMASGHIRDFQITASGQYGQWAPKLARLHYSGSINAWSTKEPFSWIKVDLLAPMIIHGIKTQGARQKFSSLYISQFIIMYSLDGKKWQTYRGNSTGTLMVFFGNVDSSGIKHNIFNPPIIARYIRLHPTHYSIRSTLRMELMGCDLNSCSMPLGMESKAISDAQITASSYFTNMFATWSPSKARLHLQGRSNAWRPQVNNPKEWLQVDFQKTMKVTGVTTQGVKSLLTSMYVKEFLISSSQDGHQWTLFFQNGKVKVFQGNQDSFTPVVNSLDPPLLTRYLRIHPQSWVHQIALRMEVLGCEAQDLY

## human factor IXa
[1]
  decrease of Km of FIXa: approximately 2.5-fold

B1: antibody 224F3 (antibody, V domains shown)
VH: QVQMQQSGAELVKPGASVKLSCKASGYTFTSQDINWVRQRPEQGLEWIGWIFPGDGSTKYNEKLKGKATLTTDKSSSTAFMQLSRLTSEDSAVYFCARSAYYRYDGSYYYAMDYWGQGTSVTVSS
VL: QIVLTQSPAIMSASLGEEITLTCSASSSVSYMLWYQQKSGTSPKLLIYTTSNLASGVPSRFSGTGSGTFYSLTISSVEAEDAADYYCHQWSSYPRTFGGGTKLEIKR
Human factor IXa [2]
  enhancement of the rate of FXa formation: 10 fold
  increase of kcat of FX activation by FIXa: ~10 fold
Human factor IXa [3]
  KM: 0.048 µM
  kcat: 0.000883 s⁻¹
  kcat/KM: 18300 M⁻¹ s⁻¹
Human factor IXa [4]
  Kd: 0.477 nM
Bovine FIX
  binding result: binds
Murine FIX
  binding result: no binding
